Reference: article PMC10691782 (Cellular immunology, 2022)

Tests used:
[1] = target: BAFF in human plasma (human (endogenous in plasma)); assay: SEC
[2] = target: BAFF 60-mer:mBaffR-Fc complex (human | murine, UniProt Q9Y275-1 134-285; Q9D8D0 1-71); assay: ELISA
[3] = target: Recombinant BAFF 3-mer (Flag-tagged BAFF amino acid 134-285) (human, UniProt Q9Y275-1 134-285); assay: SPR
[4] = target: Recombinant BAFF 60-mer (histidine-tagged BAFF amino acid 134-285) (human, UniProt Q9Y275-1 134-285); assay: SPR

BAFF in human plasma (natural protein)
stoichiometry N [1]: 3

B1: Murine BCMA-Fc (Fc fusion, UniProt O88472 1-49, looked up)
chain: MAQQCFHSEYFDSLLHACKPCHLRCSNPPATCQPYCDPSVTSSVKGTYT
modifications: not fully specified; biotin (EZ-Link Sulfo-NHS-Biotin), in the ELISA only
binding result [2]: binds

B2: Murine TACI-Fc (Fc fusion, UniProt Q9ET35 1-128, looked up)
chain: MAMAFCPKDQYWDSSRKSCVSCALTCSQRSQRTCTDFCKFINCRKEQGRYYDHLLGACVSCDSTCTQHPQQCAHFCEKRPRSQANLQPELGRPQAGEVEVRSDNSGRHQGSEHGPGLRLSSDQLTLYC
modifications: biotin (EZ-Link Sulfo-NHS-Biotin), in the ELISA only
binding result [2]: binds

B3: mBaffR-Fc (murine BR3 ecto-domain fused to murine IgG1 Fc fragment) (Fc fusion, UniProt Q9D8D0 1-71, looked up)
chain: MGARRLRVRSQRSRDSSVPTQCNQTECFDPLVRNCVSCELFHTPDTGHTSSLEPGTALQPQEGSALRPDVA
binding result [3]: binds | binding result [4]: binds
